Results from the array DNA melting data of Ke et al..

experiment: melting temperature; melt of duplexes; settings: sodium 0.0675 M; strand 1 µM

| Substance | Tm [°C] |
| --- | --- |
| CGACGTGCGAAATGTGCTG+CAGCACATCAAGCACGTCG ((((((((...((((((((+))))))))...)))))))) | 52.3 |
| CGACGTGCGAAATGTGCTG+CAGCACATCAGGCACGTCG ((((((((...((((((((+))))))))...)))))))) | 49.7 |
| CGACGTGCGAAATGTGCTG+CAGCACATCATGCACGTCG ((((((((...((((((((+))))))))...)))))))) | 49.9 |
| CGACGTGCGAAATGTGCTG+CAGCACATCCAGCACGTCG ((((((((...((((((((+))))))))...)))))))) | 50.8 |
| CGACGTGCGAAATGTGCTG+CAGCACATCGAGCACGTCG ((((((((...((((((((+))))))))...)))))))) | 55.9 |
| CGACGTGCGAAATGTGCTG+CAGCACATCGGGCACGTCG ((((((((...((((((((+))))))))...)))))))) | 48.6 |
| CGACGTGCGAAATGTGCTG+CAGCACATCGTGCACGTCG ((((((((...((((((((+))))))))...)))))))) | 44.7 |
| CGACGTGCGAAATGTGCTG+CAGCACATCTGGCACGTCG ((((((((.(.((((((((+)))))))).).)))))))) | 50.6 |
| CGACGTGCGAAATGTGCTG+CAGCACATGAAGCACGTCG ((((((((...((((((((+))))))))...)))))))) | 59.3 |
| CGACGTGCGAAATGTGCTG+CAGCACATGGAGCACGTCG ((((((((...((((((((+))))))))...)))))))) | 60.7 |
| CGACGTGCGAAATGTGCTG+CAGCACATGGGGCACGTCG ((((((((...((((((((+))))))))...)))))))) | 52 |
| CGACGTGCGAAATGTGCTG+CAGCACATTATGCACGTCG ((((((((..(((((((((+)))))))))..)))))))) | 53.6 |
| CGACGTGCGAAATGTGCTG+CAGCACATTCGGCACGTCG ((((((((..(((((((((+)))))))))..)))))))) | 53.7 |
| CGACGTGCGAAATGTGCTG+CAGCACATTCTGCACGTCG ((((((((..(((((((((+)))))))))..)))))))) | 53.7 |
| CGACGTGCGAAATGTGCTG+CAGCACATTGGGCACGTCG ((((((((..(((((((((+)))))))))..)))))))) | 54.5 |
| CGACGTGCGAAATGTGCTG+CAGCACATTTCGCACGTCG (((((((((((((((((((+))))))))))))))))))) | 64.7 |
| CGACGTGCGACATGTGCTG+CAGCACATAAAGCACGTCG ((((((((...((((((((+))))))))...)))))))) | 55.2 |
| CGACGTGCGACATGTGCTG+CAGCACATAACGCACGTCG (((((((((..((((((((+))))))))..))))))))) | 54.2 |
| CGACGTGCGACATGTGCTG+CAGCACATACTGCACGTCG ((((((((...((((((((+))))))))...)))))))) | 49.9 |
| CGACGTGCGACATGTGCTG+CAGCACATAGAGCACGTCG ((((((((...((((((((+))))))))...)))))))) | 56.3 |
| CGACGTGCGACATGTGCTG+CAGCACATAGTGCACGTCG ((((((((...((((((((+))))))))...)))))))) | 48.8 |
| CGACGTGCGACATGTGCTG+CAGCACATCAAGCACGTCG ((((((((...((((((((+))))))))...)))))))) | 52.6 |
| CGACGTGCGACATGTGCTG+CAGCACATCACGCACGTCG (((((((((..((((((((+))))))))..))))))))) | 52.7 |
| CGACGTGCGACATGTGCTG+CAGCACATCCAGCACGTCG ((((((((...((((((((+))))))))...)))))))) | 50.4 |

| Substance | Tm [°C] |
| --- | --- |
| CGACGTGCGACATGTGCTG+CAGCACATCCCGCACGTCG (((((((((..((((((((+))))))))..))))))))) | 52.3 |
| CGACGTGCGACATGTGCTG+CAGCACATCCGGCACGTCG ((((((((...((((((((+))))))))...)))))))) | 48.9 |
| CGACGTGCGACATGTGCTG+CAGCACATCTCGCACGTCG ((((((((((.((((((((+)))))))).)))))))))) | 55.4 |
| CGACGTGCGACATGTGCTG+CAGCACATCTGGCACGTCG ((((((((.(.((((((((+)))))))).).)))))))) | 49 |
| CGACGTGCGACATGTGCTG+CAGCACATGAGGCACGTCG ((((((((..(((((((((+)))))))))..)))))))) | 55.3 |
| CGACGTGCGACATGTGCTG+CAGCACATGCTGCACGTCG ((((((((..(((((((((+)))))))))..)))))))) | 54.7 |
| CGACGTGCGACATGTGCTG+CAGCACATGGAGCACGTCG ((((((((..(((((((((+)))))))))..)))))))) | 63.5 |
| CGACGTGCGACATGTGCTG+CAGCACATGGCGCACGTCG (((((((((.(((((((((+))))))))).))))))))) | 65.2 |
| CGACGTGCGACATGTGCTG+CAGCACATGGTGCACGTCG ((((((((..(((((((((+)))))))))..)))))))) | 57.3 |
| CGACGTGCGACATGTGCTG+CAGCACATGTCGCACGTCG (((((((((((((((((((+))))))))))))))))))) | 67.2 |
| CGACGTGCGACATGTGCTG+CAGCACATTATGCACGTCG ((((((((...((((((((+))))))))...)))))))) | 50.1 |
| CGACGTGCGACATGTGCTG+CAGCACATTCAGCACGTCG ((((((((...((((((((+))))))))...)))))))) | 52.4 |
| CGACGTGCGACATGTGCTG+CAGCACATTCCGCACGTCG (((((((((..((((((((+))))))))..))))))))) | 53.6 |
| CGACGTGCGACATGTGCTG+CAGCACATTCTGCACGTCG ((((((((...((((((((+))))))))...)))))))) | 51.3 |
| CGACGTGCGACATGTGCTG+CAGCACATTTAGCACGTCG ((((((((.(.((((((((+)))))))).).)))))))) | 52.2 |
| CGACGTGCGAGATGTGCTG+CAGCACATAATGCACGTCG ((((((((...((((((((+))))))))...)))))))) | 52 |
| CGACGTGCGAGATGTGCTG+CAGCACATACAGCACGTCG ((((((((...((((((((+))))))))...)))))))) | 52.6 |
| CGACGTGCGAGATGTGCTG+CAGCACATATAGCACGTCG ((((((((.(.((((((((+)))))))).).)))))))) | 54.6 |
| CGACGTGCGAGATGTGCTG+CAGCACATCAAGCACGTCG ((((((((..(((((((((+)))))))))..)))))))) | 58.6 |
| CGACGTGCGAGATGTGCTG+CAGCACATCACGCACGTCG (((((((((.(((((((((+))))))))).))))))))) | 61.4 |
| CGACGTGCGAGATGTGCTG+CAGCACATCATGCACGTCG ((((((((..(((((((((+)))))))))..)))))))) | 56.7 |
| CGACGTGCGAGATGTGCTG+CAGCACATCCTGCACGTCG ((((((((..(((((((((+)))))))))..)))))))) | 55.6 |
| CGACGTGCGAGATGTGCTG+CAGCACATCGCGCACGTCG (((((((((.(((((((((+))))))))).))))))))) | 62.5 |
| CGACGTGCGAGATGTGCTG+CAGCACATCTGGCACGTCG ((((((((.((((((((((+)))))))))).)))))))) | 59 |

| Substance | Tm [°C] |
| --- | --- |
| CGACGTGCGAGATGTGCTG+CAGCACATGACGCACGTCG (((((((((..((((((((+))))))))..))))))))) | 53.2 |
| CGACGTGCGAGATGTGCTG+CAGCACATGATGCACGTCG ((((((((...((((((((+))))))))...)))))))) | 53.2 |
| CGACGTGCGAGATGTGCTG+CAGCACATGGTGCACGTCG ((((((((...((((((((+))))))))...)))))))) | 48.5 |
| CGACGTGCGAGATGTGCTG+CAGCACATTATGCACGTCG ((((((((...((((((((+))))))))...)))))))) | 51.6 |
| CGACGTGCGAGATGTGCTG+CAGCACATTGGGCACGTCG ((((((((...((((((((+))))))))...)))))))) | 51.9 |
| CGACGTGCGAGATGTGCTG+CAGCACATTTGGCACGTCG ((((((((.(.((((((((+)))))))).).)))))))) | 52.5 |
| CGACGTGCGATATGTGCTG+CAGCACATAATGCACGTCG ((((((((..(((((((((+)))))))))..)))))))) | 54 |
| CGACGTGCGATATGTGCTG+CAGCACATAGCGCACGTCG (((((((((.(((((((((+))))))))).))))))))) | 61.3 |
| CGACGTGCGATATGTGCTG+CAGCACATATAGCACGTCG ((((((((.((((((((((+)))))))))).)))))))) | 57.5 |
| CGACGTGCGATATGTGCTG+CAGCACATATCGCACGTCG (((((((((((((((((((+))))))))))))))))))) | 64.1 |
| CGACGTGCGATATGTGCTG+CAGCACATCAGGCACGTCG ((((((((...((((((((+))))))))...)))))))) | 49.5 |
| CGACGTGCGATATGTGCTG+CAGCACATCATGCACGTCG ((((((((...((((((((+))))))))...)))))))) | 50.1 |
| CGACGTGCGATATGTGCTG+CAGCACATCCTGCACGTCG ((((((((...((((((((+))))))))...)))))))) | 49.5 |
| CGACGTGCGATATGTGCTG+CAGCACATCGCGCACGTCG (((((((((..((((((((+))))))))..))))))))) | 53.6 |
| CGACGTGCGATATGTGCTG+CAGCACATCGTGCACGTCG ((((((((...((((((((+))))))))...)))))))) | 44.3 |
| CGACGTGCGATATGTGCTG+CAGCACATCTCGCACGTCG ((((((((((.((((((((+)))))))).)))))))))) | 57.2 |
| CGACGTGCGATATGTGCTG+CAGCACATGAAGCACGTCG ((((((((...((((((((+))))))))...)))))))) | 56.1 |
| CGACGTGCGATATGTGCTG+CAGCACATGATGCACGTCG ((((((((...((((((((+))))))))...)))))))) | 53.8 |
| CGACGTGCGATATGTGCTG+CAGCACATGCCGCACGTCG (((((((((..((((((((+))))))))..))))))))) | 54.8 |
| CGACGTGCGATATGTGCTG+CAGCACATGCGGCACGTCG ((((((((...((((((((+))))))))...)))))))) | 50 |
| CGACGTGCGATATGTGCTG+CAGCACATGCTGCACGTCG ((((((((...((((((((+))))))))...)))))))) | 49.8 |
| CGACGTGCGATATGTGCTG+CAGCACATGGGGCACGTCG ((((((((...((((((((+))))))))...)))))))) | 51.3 |
| CGACGTGCGATATGTGCTG+CAGCACATTACGCACGTCG (((((((((..((((((((+))))))))..))))))))) | 54.7 |
| CGACGTGCGATATGTGCTG+CAGCACATTATGCACGTCG ((((((((...((((((((+))))))))...)))))))) | 52.2 |
